# Assay: yeast display, Sf9 membrane polyspecificity reagent, FACS + sequencing; frameworks hold sequencing errors
# In short: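 Genes from sorted yeast were amplified by colony PCR, read by MiSeq 2 × 250 sequencing and filtered on CDR length. These cells carried a synthetic nanobody library in Saccharomyces cerevisiae BJ5465 and were sorted by FACS into low and high (top ~1%) gates on anti-HA and streptavidin fluorescence. Polyreactivity is labelled according to the gate of origin.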
row,Sequence,polyreactivity (PSR sort gate)
1,QVQLVESGGGIVQAGGSLRLSCAASGSIFSGYAMGWYRQAPGKERELVAAIDWSGGTTYYADSVKGRFTISRDNAKNTVYLQMKSLKPEDTAVYYCAAKYPWYLSKDTLYYWGQGTQVTVSS,low polyreactivity
2,QVQLVESGGGIVQAGGSLRLSCAASGSIFWVNVMGWYRQAPGKEREFVAAITRSGGSTYYADSVKGRFTISRDNAKNTVYLQMNSLKPEDTAVYYCNRRGRRGYDYWGQGTLVTVSS,high polyreactivity
3,QVQLVESGGGIVQAGGSLRLSCAASGSILYFNAMGWYRQAPGKERELVAAISRTGSRTYYADSVKGRFTISRDNAKNTVYLQMNSLKPEDTAVYYCAAYNGITSHLRFDYWGQGTQVTVSS,high polyreactivity
4,QVQLVESGGGIVQAGGSLRLSCAASGSTFDVYAMGWYRQAPGKERELVAVINTSGTRTYYADSVKGRFTISRDNAKNTVYLQMNSLKPEDTAVYYCAVSYLSTLGRSRYDYWGQGTQVTVSS,low polyreactivity
5,QVQLVESGGGIVQAGGSLRLSCAASGSTFFDNAIGWYRQAPGKERELVAAITRGGSKHYADSVMGRFTISRDNAKNTVYLQMNSVKPEDTAVYSCNAQRYRVPYDYWGQGTQVTVSS,low polyreactivity
6,QVQLVESGGGIVQAGGSLRLSCAASGSTFFDNAMGWYRQAPGKERDLVAAISLTDGITYDADSVKGRFTISRDNAKNTVYLQMNSLKPEDTAVYYCNAVYDWSLDQVWDYFEYEYWGQGSQVTVSS,high polyreactivity
7,QVQLVESGGGIVQAGGSLRLSCAASGSTFSYNAMGWDRQAPGKERELVAAITSRGGSTRYADSVKGRFTISRDNAKNTVYLQMNSLKPEDTAVYYCARPYSYYPYSTVNYWGQGTQVTVSS,high polyreactivity
8,QVQLVESGGGIVQAGGSLRLSCAASGSTFYRYVMGWYRQAPGKERELVAAISWSGGSTYYADSVKGRFTISRDNAKNTVYLQMNSLKPEDTAVYYCAAVHKVGWSRHYDYWGQGTQVTVSS,high polyreactivity
9,QVQLVESGGGIVQAGGSLRLSCAASGSTIDYNAMGWYRQARGQERELVAAITSGGSTSYADSVKGRFTISRENAKNTVYLQMNSLKPEDTAGYYCAVKRYWLWWYDYWGQGTQVTVSS,high polyreactivity
10,QVQLVESGGGIVQAGGSLRLSCAASGTFGYAMGWYRQAPGKERELVAAISYSGGSTYYADSVKGRFTISRDNAKNTVYLQMNSLKPEDTAVYYCAARTTLSYGYDYWGQGTQVTVSS,high polyreactivity
11,QVQLVESGGGIVQAGGSLRLSCADSGITFKYYAMGWYRQAPGKERQWVAAISRSGGSTYYADSVKGRFTISRDNAKNTVYLQMNSLIAEDTAVYYCNAELYSVYLGFGYWGQGTQVTVSS,high polyreactivity
12,QVQLVESGGGIVQAGGSLRLSCADSGRTFGYYGMGWYRQAPGKERELVASINFSSGSTFYADSVKGRFTISRDNAKNTVYLQMNSLKPEDTAVYYCAGRAKAVRTYAYNYWGQGTQVTVSS,low polyreactivity
13,QVQLVESGGGIVQAGGSLRLSCADSGSTFRDNAMGLYRQAPGKERELVAAITVIDGTTYYADSVKGRFTISRDNAKNTVYLQMNSLKPEDTAVYYCAADTIWYEYYYWGQGTQVTVSS,low polyreactivity
14,QVQLVESGGGIVQAGGSLRLSCPASGRIFGPNAMGGYRQAPGKERELVAVISRRGTSTYYADSVKGRFTISRDNAKNTVYLQMNRLKPEDTAVYYCAAGGHYLYDYWGQGTQVTVSS,high polyreactivity
15,QVQLVESGGGIVQAGGSLRLSSAASGFTFDSNAMGWYRQPPGKERELVAAISASGDSTYYADSVKGRFTISRDNAKNTVYLQMNSLKPEDTAVYYCAADSYYGGWRFDHWGQGTQVTVSS,low polyreactivity
16,QVQLVESGGGIVQAGGSLRLTCAASGRIFRSYAMGWYRQAPGKERELVATITWSGTSTYADSVKGRFTISRDNAKNTVYLQMNSLKPEDTAVYYCAAVALFPKYRYYSWGQGTQVTVSS,high polyreactivity
17,QVQLVESGGGIVQAGGSLRLTCAASGRTYTPYAMGWYRQAPGKERELVAAIDTSGGSTYADSVKGRFTISRDNAKNTVYLQMNSLKPEDTAVYYCATRGFYSWDYWYLWEYDYWGQGTQVTVSS,low polyreactivity
18,QVQLVESGGGIVQAGGSLSLSCAASGFIIPSYTMGWYRQAPGKERDLVAGITQRGGSTYYADSVKGRFTISRDNAKNTVYLQMNSLNPEDTAVYYCARGISRGRSFGIGYDYWGQGTQVTLSS,low polyreactivity
19,QVQLVESGGGIVQAGGSLSLSCAASGSTFYSYDMVWYRPAPGKERELVAAISWEGGRPYYADSVKGRFTISRDNAKNNVYLQMNSLKPEDTAVYYCADAYPTYRHYYWGQGTQVSVSS,low polyreactivity
20,QVQLVESGGGIVQAGGSLSLSCRACGRSFAFYSMGWYRQEPGKERELVAAITRTGSTSYADSVNGRFTISRDNAKNTVYLQMNSLKPEDTAVYYCATVGYPYTLWHQMVYWGQGTQVTVSS,low polyreactivity
21,QVQLVESGGGIVQAGRSLRLSCAASGNTFYLYAMGWYRQAPGKERELVATITSGGRTTYADSVKGRFTISRDNAKNTVYLQMNSLKPEDTAVYYCAARRVQYYGWGGMEYWGQGTQVTVSS,high polyreactivity

row,Sequence,polyreactivity (PSR sort gate)
1,QVQLVESGGGIVQAGRSLRLSCAASGRTFYYYVMGWYRQAPGKERELVAAISRGGRTYYADSVKGRFTISRDNAKNTVYLQMNSLKPEDTAVYYCNAVPRKSRHRYDYWGQGSQVTVSS,high polyreactivity
2,QVQLVESGGGIVQAGVSLRLSCAASGGTLCTYAMGWYRQAPGKERELVASIDSGDSTYYADSVKGRFTISRDNAKNTVYLQMNSLKPEDTAVYYCAAAYFRRYTTTWYGYEYWGQGTQVTVSS,low polyreactivity
3,QVQLVESGGGIVQARGSLRLSSAASGNIFRINGMGWSRQERGKERELVASITRSGSTYYADSVKGRFTISRDNAKNTVYLQMNILKPEDTAVYYCAADSSSYGVRFDYWGQGTQVTVSS,low polyreactivity
4,QVQLVESGGGIVQVGRSLPISSAAYGRTFVYYAMGWYRQAPGKERELVARISRSGGRTFYADSVKGRFTISRDNAKNTVYLVLYSQKPEDTAVYYCNSSDVHVTTYGYWGQGTQVSVSS,low polyreactivity
5,QVQLVESGGGKVQAGGSLRLSCAASGLTFSRYAMGWYRQAPGKERELVAAISGRGASTSYADSVKGRFTISRDNAKNTVYLQMNSLKPEDTAVYYCAAQKYYHSYLNRHYYWGQGTQVTVSS,high polyreactivity
6,QVQLVESGGGKVQAGGSLRLSCAASGRIFPEYAMGWYRQAPGKERELVAAISSGDNTTYADSVKGRFTISRDNAKNTVYLQMNSLKPEDTAVYYCNAGSGTTGQGGPIIEYGYWGQGTQVTVSS,low polyreactivity
7,QVQLVESGGGKVQAGGSLRLSCAASGRILHEYAMGWYRQAPGKERELVAAITFSGTSTYYADSVKGRFTISRDNAKNTVYLQMYSLKPEDTAVYYCAADTYGGSRDYWGQGTQVTVSS,low polyreactivity
8,QVQLVESGGGKVQAGGSLRLSCAASGYTFKYYTMGWYRQAPGKERELLAAITRSGGSTYYADSVKGRFTISRDTAKNTVYLQMNSLKPEDTAFYYCAARASYKQPVSFDYWGQGTQVTVSS,high polyreactivity
9,QVQLVESGGGLDHAGGSLRLSCAASGRTFLGYAMGWYRQAPGKERELVAAISSSGGSTYYADSVKGLFTISRDNAKNTVYLQTNSLKPEDTAVYYCAKRKPATCASGHRFGYWGQGTQVTVSS,high polyreactivity
10,QVQLVESGGGLDLAGGSLRLSCASSGLTFFYYAMAWYRQAPGKEMEFVASISRSGGSTYYADSVKGRFTISRDNAKNTVSLQKNSLKPEDTAVYYCAAVERRTPGYGYDYWGQGTQVTVSS,high polyreactivity
11,QVQLVESGGGLDQAGCSLRLSCAASGRIFYVYDMGWYRQAPGKERELVATITSSGDGTYYADSVKGRFTSSRDNAKNTVYLQMNSLKPEDTAVYYCARRYFVRFVNPPYYYWGHGTQVTVSS,low polyreactivity
12,QVQLVESGGGLDQAGGRLRLSCAASGRTFVYYAMGWYRQAPGKERELVATITRGGRTNYADSVKGRFTISRDNAKNTVYLQMNSLKPEDTAVYYCNARYSWWRSRVGSSHRPDGYWGQGTQVTVSS,high polyreactivity
13,QVQLVESGGGLDQAGGRLRLSCAASGRTYSVKSMGWYRQAPGKERELVAAITSGGSTYYADSVKGRFTISRDNAKNTVYLQMNSLKPEDTAVYYCNAVGRLRRSRLRMDYWGQGTQVTVSS,high polyreactivity
14,QVQLVESGGGLDQAGGRLRLSCAAYGSTFELYAMGWYRQAPGKERELVASITGDSTNYADSVKGRFTISRDNAKNTVYLQMNSLKPEDTAVYYCAAEYVPYYEYESWGQGTQVTVSS,low polyreactivity
15,QVQLVESGGGLDQAGGSIRLSCAASGGTFKANAMGWYRQAPGKEREVVAAIRQTGGSTYYADSVKGRFTISRDNEKNTVYLQMNSLKPEDTAVYYCAAQSHRYWIYDYWGQCTQVTVSS,high polyreactivity
16,QVQLVESGGGLDQAGGSLPLSCAASGFTFGHYAMGWYRQAPGKERELVAAISSGDRTYYADSVKGRFTISRDNAKNTVYLQMNSLKPEDTAVYYCAADGIYTYEYWGQGTQVTVSS,low polyreactivity
17,QVQLVESGGGLDQAGGSLRLICDAYGSTFNWNAMGWYRQAPGKERELVAAISSGGSTNYADSVKGRFTISRDNAKNTVYLQMNSLKPEDTAVYYCARQHSRWYSGYKYNYWGQGTQVTVSS,high polyreactivity
18,QVQLVESGGGLDQAGGSLRLIFAASGRTFYRYAMGLYRQAPGKERELVAAISVRGGSTYYADSVKGRFTISRDNAKNTVYLQMNSLKPEDTAVYYCDAEYVAPWYIGLEVTRLIYWGQGTQVTVSS,high polyreactivity
19,QVQLVESGGGLDQAGGSLRLISAASGLTLRRYAMGWYRQAPGKERELVASINTGTSTKYADSVKGRFTISRDNAKNTDYLQLNSLKPEDTAFYYCAARPAAQGYGYWGQGTQVTVSS,high polyreactivity
20,QVQLVESGGGLDQAGGSLRLSCAASGFIFGVSVMGWYRPAPGKERELVAAMSGRGGSTFYADSVKGRFTISRDNAKNTVYLQMNSLKPEDTAVYYCAAKSTGPSMDYWGQGTQVTVSS,high polyreactivity

# Source: the nanobody polyreactivity screen of Harvey et al. (2022)
